From the supplement of paper PMC5998384 come the findings set out here.

Series [1] has as its system HeLa Kyoto. Briefly: solubility in G1/S (NP-40 vs SDS abundance) (log2 ratio); higher = more soluble. The note with it: cell cycle stage: G1/S.
For series [2], the system named is HeLa Kyoto. Nature of the series: solubility change mitosis vs G1/S (difference of NP-40 vs SDS log2 ratios) (log2 ratio difference); higher = more soluble in mitosis.
In series [3] the test system is HeLa Kyoto. Nature of the series: thermal stability score vs G1/S (z-score of summed log2 fold changes over temperatures); higher = more thermally stable than in G1/S.
Where [4] appears, read: cell cycle stage: early G1 (4.5 h after nocodazole release).
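Wherever solubility change mitosis vs G1/S (difference of NP-40 vs SDS log2 ratios) is given: synchronized HeLa Kyoto cells (double thymidine block for G1/S, nocodazole release for mitosis), protein amounts in NP-40 versus SDS lysates quantified by mass spectrometry, three biological replicates.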
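Wherever solubility in G1/S (NP-40 vs SDS abundance) is given: HeLa Kyoto cells arrested at G1/S by double thymidine block, proteins quantified by TMT10plex mass spectrometry in mild NP-40 versus SDS extracts, three biological replicates.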
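Wherever thermal stability score vs G1/S (z-score of summed log2 fold changes over temperatures) is given: synchronized HeLa Kyoto cells, proteins quantified by TMT10plex mass spectrometry, three biological replicates, mitosis taken 0.5 h after nocodazole release, G1/S directly after double thymidine block.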

For the sequence “MESSSSDYYNKDNEEESLLANVASLRHELKITEWSLQSLGEELSSVSPSENSDYAPNPSRSEKLILDVQPSHPGLLNYSPYENVCKISGSSTDFQKKPRDKMFSSSAPVDQEIKSLREKLNKLRQQNACLVTQNHSLMTKFESIHFELTQSRAKVSMLESAQQQAASVPILEEQIINLEAEVSAQDKVLREAENKLEQSQKMVIEKEQSLQESKEECIKLKVDLLEQTKQGKRAERQRNEALYNAEELSKAFQQYKKKVAEKLEKVQAEEEILERNLTNCEKENKRLQERCGLYKSELEILKEKLRQLKEENNNGKEKLRIMAVKNSEVMAQLTESRQSILKLESELENKDEILRDKFSLMNENRELKVRVAAQNERLDLCQQEIESSRVELRSLEKIISQLPLKRELFGFKSYLSKYQMSSFSNKEDRCIGCCEANKLVISELRIKLAIKEAEIQKLHANLTANQLSQSLITCNDSQESSKLSSLETEPVKLGGHQVESVKDQNQHTMNKQYEKERQRLVTGIEELRTKLIQIEAENSDLKVNMAHRTSQFQLIQEELLEKASNSSKLESEMTKKCSQLLTLEKQLEEKIVAYSSIAAKNAELEQELMEKNEKIRSLETNINTEHEKICLAFEKAKKIHLEQHKEMEKQIERLEAQLEKKDQQFKEQEKTMSMLQQDIICKQHHLESLDRLLTESKGEMKKENMKKDEALKALQNQVSEETIKVRQLDSALEICKEELVLHLNQLEGNKEKFEKQLKKKSEEVYCLQKELKIKNHSLQETSEQNVILQHTLQQQQQMLQQETIRNGELEDTQTKLEKQVSKLEQELQKQRESSAEKLRKMEEKCESAAHEADLKRQKVIELTGTARQVKIEMDQYKEELSKMEKEIMHLKRDGENKAMHLSQLDMILDQTKTELEKKTNAVKELEKLQHSTETELTEALQKREVLETELQNAHGELKSTLRQLQELRDVLQKAQLSLEEKYTTIKDLTAELRECKMEIEDKKQELLEMDQALKERNWELKQRAAQVTHLDMTIREHRGEMEQKIIKLEGTLEKSELELKECNKQIESLNDKLQNAKEQLREKEFIMLQNEQEISQLKKEIERTQQRMKEMESVMKEQEQYIATQYKEAIDLGQELRLTREQVQNSHTELAEARHQQVQAQREIERLSSELEDMKQLSKEKDAHGNHLAEELGASKVREAHLEARMQAEIKKLSAEVESLKEAYHMEMISHQENHAKWKISADSQKSSVQQLNEQLEKAKLELEEAQDTVSNLHQQVQDRNEVIEAANEALLTKESELTRLQAKISGHEKAEDIKFLPAPFTSPTEIMPDVQDPKFAKCFHTSFSKCTKLRRSISASDLTFKIHGDEDLSEELLQDLKKMQLEQPSTLEESHKNLTYTQPDSFKPLTYNLEADSSENNDFNTLSGMLRYINKEVRLLKKSSMQTGAGLNQGENV [CCDC18]”, in the series with HeLa Kyoto [1], the “solubility in G1/S (log2)” value turned out to be 0.155. The “solubility change mitosis (log2)” value with HeLa Kyoto [2] worked out at 0.237. The thermal stability score in the series on HeLa Kyoto [3] (setting [4]) was -0.388; in the series with HeLa Kyoto [3] (cell cycle stage: mitosis), -0.856.

With “MEVRKLSISWQFLIVLVLILQILSALDFDPYRVLGVSRTASQADIKKAYKKLAREWHPDKNKDPGAEDKFIQISKAYEILSNEEKRSNYDQYGDAGENQGYQKQQQQREYRFRHFHENFYFDESFFHFPFNSERRDSIDEKYLLHFSHYVNEVVPDSFKKPYLIKITSDWCFSCIHIEPVWKEVIQELEELGVGIGVVHAGYERRLAHHLGAHSTPSILGIINGKISFFHNAVVRENLRQFVESLLPGNLVEKVTNKNYVRFLSGWQQENKPHVLLFDQTPIVPLLYKLTAFAYKDYLSFGYVYVGLRGTEEMTRRYNINIYAPTLLVFKEHINRPADVIQARGMKKQIIDDFITRNKYLLAARLTSQKLFHELCPVKRSHRQRKYCVVLLTAETTKLSKPFEAFLSFALANTQDTVRFVHVYSNRQQEFADTLLPDSEAFQGKSAVSILERRNTAGRVVYKTLEDPWIGSESDKFILLGYLDQLRKDPALLSSEAVLPDLTDELAPVFLLRWFYSASDYISDCWDSIFHNNWREMMPLLSLIFSALFILFGTVIVQAFSDSNDERESSPPEKEEAQEKTGKTEPSFTKENSSKIPKKGFVEVTELTDVTYTSNLVRLRPGHMNVVLILSNSTKTSLLQKFALEVYTFTGSSCLHFSFLSLDKHREWLEYLLEFAQDAAPIPNQYDKHFMERDYTGYVLALNGHKKYFCLFKPQKTVEEEEAIGSCSDVDSSLYLGESRGKPSCGLGSRPIKGKLSKLSLWMERLLEGSLQRFYIPSWPELD [DNAJC16]”, in the series with HeLa Kyoto [1], the “solubility in G1/S (log2)” value is -0.398. The “solubility change mitosis (log2)” value in the series with HeLa Kyoto [2] stood at 1.48e-05. Moreover, the thermal stability score in the series on HeLa Kyoto [3] (setting [4]) was -0.236; with HeLa Kyoto [3] (cell cycle stage: mitosis), -0.485.

In the case of “MGFGSDLKNSHEAVLKLQDWELRLLETVKKFMALRIKSDKEYASTLQNLCNQVDKESTVQMNYVSNVSKSWLLMIQQTEQLSRIMKTHAEDLNSGPLHRLTMMIKDKQQVKKSYIGVHQQIEAEMIKVTKTELEKLKCSYRQLIKEMNSAKEKYKEALAKGKETEKAKERYDKATMKLHMLHNQYVLALKGAQLHQNQYYDITLPLLLDSLQKMQEEMIKALKGIFDEYSQITSLVTEEIVNVHKEIQMSVEQIDPSTEYNNFIDVHRTTAAKEQEIEFDTSLLEENENLQANEIMWNNLTAESLQVMLKTLAEELMQTQQMLLNKEEAVLELEKRIEESSETCEKKSDIVLLLSQKQALEELKQSVQQLRCTEAKFSAQKELLEQKVQENDGKEPPPVVNYEEDARSVTSMERKERLSKFESIRHSIAGIIRSPKSALGSSALSDMISISEKPLAEQDWYHGAIPRIEAQELLKKQGDFLVRESHGKPGEYVLSVYSDGQRRHFIIQYVDNMYRFEGTGFSNIPQLIDHHYTTKQVITKKSGVVLLNPIPKDKKWILSHEDVILGELLGKGNFGEVYKGTLKDKTSVAVKTCKEDLPQELKIKFLQEAKILKQYDHPNIVKLIGVCTQRQPVYIIMELVSGGDFLTFLRRKKDELKLKQLVKFSLDAAAGMLYLESKNCIHRDLAARNCLVGENNVLKISDFGMSRQEDGGVYSSSGLKQIPIKWTAPEALNYGRYSSESDVWSFGILLWETFSLGVCPYPGMTNQQAREQVERGYRMSAPQHCPEDISKIMMKCWDYKPENRPKFSELQKELTIIKRKLT [FER]”, the “solubility in G1/S (log2)” value in the series on HeLa Kyoto [1] was -0.0779. Besides, the “solubility change mitosis (log2)” value with HeLa Kyoto [2] is -0.106. The figures for the thermal stability score with HeLa Kyoto [3] (setting [4]) and in the series with HeLa Kyoto [3] (cell cycle stage: mitosis) were -0.138 and -0.342, respectively.

With “MGFNLTFHLSYKFRLLLLLTLCLTVVGWATSNYFVGAIQEIPKAKEFMANFHKTLILGKGKTLTNEASTKKVELDNCPSVSPYLRGQSKLIFKPDLTLEEVQAENPKVSRGRYRPQECKALQRVAILVPHRNREKHLMYLLEHLHPFLQRQQLDYGIYVIHQAEGKKFNRAKLLNVGYLEALKEENWDCFIFHDVDLVPENDFNLYKCEEHPKHLVVGRNSTGYRLRYSGYFGGVTALSREQFFKVNGFSNNYWGWGGEDDDLRLRVELQRMKISRPLPEVGKYTMVFHTRDKGNEVNAERMKLLHQVSRVWRTDGLSSCSYKLVSVEHNPLYINITVDFWFGA [B4GALT4]”, the “solubility in G1/S (log2)” value with HeLa Kyoto [1] worked out at 0.167. Further, the “solubility change mitosis (log2)” value with HeLa Kyoto [2] was -0.14. For the same sequence, the thermal stability score is -0.773 in the series on HeLa Kyoto [3] (setting [4]) and -0.781 in the series with HeLa Kyoto [3] (cell cycle stage: mitosis).

Turning to “MGKRDNRVAYMNPIAMARSRGPIQSSGPTIQDYLNRPRPTWEEVKEQLEKKKKGSKALAEFEEKMNENWKKELEKHREKLLSGSESSSKKRQRKKKEKKKSGRYSSSSSSSSDSSSSSSDSEDEDKKQGKRRKKKKNRSHKSSESSMSETESDSKDSLKKKKKSKDGTEKEKDIKGLSKKRKMYSEDKPLSSESLSESEYIEEVRAKKKKSSEEREKATEKTKKKKKHKKHSKKKKKKAASSSPDSP [FAM133B]”, in the series on HeLa Kyoto [1], the “solubility in G1/S (log2)” value is -1.16. The “solubility change mitosis (log2)” value in the series with HeLa Kyoto [2] is 0.889. Besides, the thermal stability score with HeLa Kyoto [3] (setting [4]) is -5.3; in the series with HeLa Kyoto [3] (cell cycle stage: mitosis) it was -3.34.
